The record followed here is patent EP4692116A1 (Kexing Biopharm Co., Ltd., dated 2026).

Experiment [1] deals with human GDF15 protein (Novoprotein, Cat# DRA26) (human) (UniProt Q99988). The experiment in a line: ELISA, human GDF15 coated, anti-human Fc-HRP detection.
Experiment [2] addresses GDF15-Biotin protein (KACTUS, Cat# GDF-HM215B) (human) (UniProt Q99988). The experiment in a line: blocking ELISA: GFRAL coated, 20 ng/mL GDF15-Biotin with titrated antibody, Streptavidin-HRP. In general terms: ELISA stands for enzyme-linked immunosorbent assay.
The target in experiment [3] is Human GDNF protein (Novoprotein, Cat# C226) (human) (UniProt P39905). The experiment in a line: ELISA, GDNF coated, antibody from 2,000 nM, anti-human Fc-HRP detection.
For experiment [4], the target named is human GDF15 protein (Novoprotein, Cat# DRA26) (human) (UniProt Q99988). The experiment is described as follows: cell-based or functional assay.
In experiment [5] the target is ARTN protein (Novoprotein, Cat# CR34) (human) (UniProt Q5T4W7). The experiment is described as follows: ELISA, ARTN coated, antibody from 2,000 nM, anti-human Fc-HRP detection.
The target in experiment [6] is T1, GDF15-Biotin protein (KACTUS, Cat# GDF-HM215B) (human, UniProt Q99988 197-308, limits assumed, biotin (site not stated)).
T1 construct: Bought biotinylated protein; also called human GDF15
T1 sequence (looked up): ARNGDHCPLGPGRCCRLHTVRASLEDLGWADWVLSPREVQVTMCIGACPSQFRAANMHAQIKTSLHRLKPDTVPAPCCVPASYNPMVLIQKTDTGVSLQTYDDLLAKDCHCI
The experiment in a line: blocking ELISA: GFRAL coated, 20 ng/mL GDF15-Biotin with titrated antibody, Streptavidin-HRP.

Experiment [7] has as its target T2, human GDF15 protein (Novoprotein, Cat# DRA26) (human, UniProt Q99988 197-308).
T2 construct: Bought recombinant protein; also called growth differentiation factor 15; MIC-1
T2 sequence (looked up): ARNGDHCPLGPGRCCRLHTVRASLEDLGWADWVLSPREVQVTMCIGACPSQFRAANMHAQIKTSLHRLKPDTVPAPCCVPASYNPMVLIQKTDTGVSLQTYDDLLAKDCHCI
The experiment in a line: ELISA, human GDF15 coated, anti-human Fc-HRP detection.

Experiment [8] concerns the target T3, Human GDNF protein (Novoprotein, Cat# C226) (human, UniProt P39905 78-211).
T3 construct: Bought protein
T3 sequence (looked up): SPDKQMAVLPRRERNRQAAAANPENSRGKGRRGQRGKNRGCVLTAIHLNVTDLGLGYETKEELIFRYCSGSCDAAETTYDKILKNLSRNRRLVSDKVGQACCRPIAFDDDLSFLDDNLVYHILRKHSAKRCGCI
The experiment is described as follows: ELISA, GDNF coated, antibody from 2,000 nM.

Experiment [9] deals with T2, human GDF15 protein (Novoprotein, Cat# …). The experiment is described as follows: cell-based or functional assay.

Sequence of ARTN protein (Novoprotein, Cat# CR34) (human) (Q5T4W7 108-220 limits assumed): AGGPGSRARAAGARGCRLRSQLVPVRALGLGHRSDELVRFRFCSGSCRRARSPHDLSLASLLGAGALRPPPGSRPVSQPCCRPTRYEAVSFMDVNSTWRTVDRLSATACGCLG

The term EC50 denotes the concentration that produces a half-maximal response. A lower EC50 goes with an effect from little substance. One may read the IC50 as the concentration needed to halve the response being measured. The low end stands for greater potency in that assay, the high end for weaker potency in that assay. In the case of “PF-06946860 (Pfizer GDF15 monoclonal antibody, positive control)”, the EC50 in experiment [1] worked out at 0.0974 nM; in experiment [3], 278 nM; in [5], 97.1 nM. In addition, in experiment [2], the IC50 amounted to 0.11 nM. For the same molecule, the IC50 of GDF15 reporter gene activity in experiment [4] turned out to be 0.0475 nM.

“CTL002 (CatalYm humanized GDF15 monoclonal antibody, positive control)” showed an EC50 in experiment [1] of 0.0933 nM. The IC50 in [2] amounted to 1.5 nM. Further, the IC50 of GDF15 reporter gene activity in experiment [4] was 1.99 nM.

B1: LN06 GDF15 heavy chain single-domain antibody (full-length, VHH joined to human IgG1 Fc) (antibody, V domains shown)
VH: QLQLVESGGGLVQPGGSLRLSCVASGFTLDDYAIGWFRQAPGKGLEGVSCISSSDESTYYADSVKGRFTISRDNAKNTAYLQMNSLKPEDTAIYYCAADTECPVQVTSMAWGQGTQVTVSS
notes: expressed in CHO cells; No light chain; also called LN06 full-length
The molecule B1 registered an IC50 in [6] of 0.175 nM. It took 0.0832 nM to reach a half-maximal effect in experiment [7] (EC50). The binding result in experiment [8] was “binds”. For the same molecule, the “IC50 of GDF15 reporter gene activity” value in experiment [9] is 0.0705 nM.

B2: LN05 GDF15 heavy chain single-domain antibody (full-length, VHH joined to human IgG1 Fc) (antibody, V domains shown)
VH: QVQLVESGGGLVQPGGSLRLSCAASGFTLDYYAIGWFRQAPGKGREGVSCISSNDGSTYYSDSVKGRFTTSRDNAKNTVYLQMNSLKPEDTAVYYCAADLTPCPVNPSVDHYWGQGTQVTVSS
notes: expressed in CHO cells, Protein A purified; No light chain; also called LN05 full-length
On to B2, for which the IC50 in experiment [6] was 0.221 nM. For the same molecule, in experiment [7], the EC50 was 0.0912 nM. For the same molecule, in [8], the binding result was “binds”. Further, the “IC50 of GDF15 reporter gene activity” value in experiment [9] came out at 0.0778 nM.

B3: LN11 GDF15 heavy chain single-domain antibody (VHH joined to human IgG1 Fc) (antibody, V domains shown)
VH: QVQLVESGGGLVQPGGSLRLSCAASGFTIRTYTMSWYRQAPGKERALVAYITPGGPTYHIDSVKGRFTISRNNAENTVYLQMNSLKPEDTAVYYCGNGFGSWGQGTQVTVSS
Molecule B3 yielded an EC50 in [7] of 0.382 nM. This lies in the sub-nanomolar range.

B4: LN25 GDF15 heavy chain single-domain antibody (full-length, VHH joined to human IgG1 Fc) (antibody, V domains shown)
VH: QLQLVESGGGEVQPGGSLRLSCAASGATLDDLSIGWFRQAPGKGLEGVSCISSSDGSTYYADSVKGRFTISRDNAKNTAYLQMNSLRPEDTAVYYCAADREDCPVQPWGIVAGTSRGQGTQVTVSS
notes: expressed in CHO cells; No light chain; also called LN25 full-length
B4 displayed an IC50 in experiment [6] of 0.171 nM. The molecule also had an EC50 in experiment [7] of 0.0892 nM. The binding result in experiment [8] is recorded as “binds”. Moreover, in [9], the “IC50 of GDF15 reporter gene activity” value stood at 0.0735 nM.

B5: LN13 GDF15 heavy chain single-domain antibody (full-length, VHH joined to human IgG1 Fc) (antibody, V domains shown)
VH: QLQLVESGGGLVQPGGSLRLSCAASGFTLDYYAIGWFRQAPGKGPEAVSCISSSDGSTYYSDSVKGRFTISRDNAKNTVYLQMNSLKPEDTAVYYCAAGEYGSDCPVQVGSWGQGTQVTVSS
notes: expressed in CHO cells; No light chain; also called LN13 full-length
Turning to B5, half-maximal inhibition in experiment [6] (IC50) was put at 0.147 nM. Further, the half-maximal effective concentration (EC50) in [7] came out at 0.0858 nM. For the same molecule, in experiment [8], the binding result was “binds”. The “IC50 of GDF15 reporter gene activity” value in [9] is 0.0719 nM.

B6: LN14 GDF15 heavy chain single-domain antibody (full-length, VHH joined to human IgG1 Fc) (antibody, V domains shown)
VH: QVQLVESGGGLVQPGGSLRLACAASGFTLDAYAVGWFRQAPGKNPEGVSCISSSDGSAYYADSVKGRFTISRDNAKNTVYLQMNSLKPGDTAVYYCAADLSCPVQIATFHSRGQGTQVTVSS
notes: expressed in CHO cells; No light chain; also called LN14 full-length
In experiment [6], B6 gave an IC50 of 0.16 nM. In addition, it took 0.0988 nM to reach a half-maximal effect in [7] (EC50). In experiment [9], the “IC50 of GDF15 reporter gene activity” value was determined as 0.0701 nM.
